Reference: patent US20110045008A1 (NEW YORK UNIVERSITY, published 2011)

T1: C-terminal truncated 35S-ADAMTS-18 (AD-CTD) (Homo sapiens (Human), UniProt Q8TE60 48-1064, 35S methionine)
T1 construct: also called C-terminal deficient ADAMTS-18
T1 sequence: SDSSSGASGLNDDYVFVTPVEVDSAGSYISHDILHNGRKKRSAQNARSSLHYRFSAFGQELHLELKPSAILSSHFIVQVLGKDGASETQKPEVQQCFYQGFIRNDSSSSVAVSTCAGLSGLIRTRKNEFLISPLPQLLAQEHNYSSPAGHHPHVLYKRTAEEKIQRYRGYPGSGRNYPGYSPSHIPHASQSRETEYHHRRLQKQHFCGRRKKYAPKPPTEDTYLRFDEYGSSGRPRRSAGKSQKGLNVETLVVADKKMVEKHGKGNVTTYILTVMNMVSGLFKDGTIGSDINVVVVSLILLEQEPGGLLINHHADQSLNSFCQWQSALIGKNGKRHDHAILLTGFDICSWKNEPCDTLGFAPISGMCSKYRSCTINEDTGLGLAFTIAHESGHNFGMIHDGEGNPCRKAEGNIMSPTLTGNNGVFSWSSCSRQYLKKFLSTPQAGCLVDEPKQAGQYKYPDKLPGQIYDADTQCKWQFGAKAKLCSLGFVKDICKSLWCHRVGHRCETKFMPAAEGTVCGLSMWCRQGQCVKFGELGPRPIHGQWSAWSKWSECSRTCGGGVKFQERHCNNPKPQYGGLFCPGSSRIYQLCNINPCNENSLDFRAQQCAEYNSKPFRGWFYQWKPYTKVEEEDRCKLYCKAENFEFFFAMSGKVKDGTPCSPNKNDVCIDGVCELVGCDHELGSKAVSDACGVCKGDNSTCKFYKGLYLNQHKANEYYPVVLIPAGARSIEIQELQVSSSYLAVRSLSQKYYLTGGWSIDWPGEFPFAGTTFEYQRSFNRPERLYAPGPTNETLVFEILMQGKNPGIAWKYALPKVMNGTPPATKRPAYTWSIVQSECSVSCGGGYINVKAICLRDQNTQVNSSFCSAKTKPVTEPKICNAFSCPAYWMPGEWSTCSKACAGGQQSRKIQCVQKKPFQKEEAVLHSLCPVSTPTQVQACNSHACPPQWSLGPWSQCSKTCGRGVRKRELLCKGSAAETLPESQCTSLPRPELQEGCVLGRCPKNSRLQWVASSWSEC

B1: ADAMTS-18 C-terminal 385 amino acid fragment (AD-18F) (ligand)
chain: NETLVFEILMQGKNPGIAWKYALPKVMNGTPPATKRPAYTWSIVQSECSVSCGGGYINVKAICLRDQNTQVNSSFCSAKTKPVTEPKICNAFSCPAYWMPGEWSTCSKACAGGQQSRKIQCVQKKPFQKEEAVLHSLCPVSTPTQVQACNSHACPPQWSLGPWSQCSKTCGRGVRKRELLCKGSAAETLPESQCTSLPRPELQEGCVLGRCPKNSRLQWVASSWSECSATCGLGVRKREMKCSEKGFQGKLITFPERRCRNIKKPNLDLEETCNRRACPAHPVYNMVAGWYSLPWQQCTVTCGGGVQTRSVHCVQQGRPSSSCLLHQKPPVLRACNTNFCPAPEKREDPSCVDFFNWCHLVPQHGVCNHKFYGKQCCKSCTRKI
B2: platelet GPIIIa (integrin beta3) on platelets (receptor, human, UniProt P05106 27-788, looked up)
chain: GPNICTTRGVSSCQQCLAVSPMCAWCSDEALPLGSPRCDLKENLLKDNCAPESIEFPVSEARVLEDRPLSDKGSGDSSQVTQVSPQRIALRLRPDDSKNFSIQVRQVEDYPVDIYYLMDLSYSMKDDLWSIQNLGTKLATQMRKLTSNLRIGFGAFVDKPVSPYMYISPPEALENPCYDMKTTCLPMFGYKHVLTLTDQVTRFNEEVKKQSVSRNRDAPEGGFDAIMQATVCDEKIGWRNDASHLLVFTTDAKTHIALDGRLAGIVQPNDGQCHVGSDNHYSASTTMDYPSLGLMTEKLSQKNINLIFAVTENVVNLYQNYSELIPGTTVGVLSMDSSNVLQLIVDAYGKIRSKVELEVRDLPEELSLSFNATCLNNEVIPGLKSCMGLKIGDTVSFSIEAKVRGCPQEKEKSFTIKPVGFKDSLIVQVTFDCDCACQAQAEPNSHRCNNGNGTFECGVCRCGPGWLGSQCECSEEDYRPSQQDECSPREGQPVCSQRGECLCGQCVCHSSDFGKITGKYCECDDFSCVRYKGEMCSGHGQCSCGDCLCDSDWTGYYCNCTTRTDTCMSSNGLLCSGRGKCECGSCVCIQPGSYGDTCEKCPTCPDACTFKKECVECKKFDRGALHDENTCNRYCRDEIESVKELKDTGKDAVNCTYKNEDDCVVRFQYYEDSSGKSILYVVEEPECPKGPDILVVLLSVMGAILLIGLAALLIWKLLITIHDRKEFAKFEEERARAKWDTANNPLYKEATSTFTNITYRGT
notes: whole, on cells; On platelets GPIIIa stands in the GPIIb-IIIa complex; also called platelet GPIIIa(49-66); platelet integrin GPIIIa

Columns and labels:
[1] = molecular target: B2; experiment: cell-based or functional assay
[2] = molecular target: T1, C-terminal truncated 35S-ADAMTS-18 …; experiment: 35S-labelled protein on gel filtered platelets, overnight at 4 C
Method: FIGS. 14A-C show the effect of ADAMTS-18 on oxidative platelet fragmentation and binding to platelets. […] Gel-filtered platelets were treated with Biotin-peptide (bp) as well as bp+streptavidin (str) and scrambled Biotinylated ADAMTS-18 peptide (scp) to induce integrin clustering, n=6. Platelet fragmentation was assessed by FACS as described in the examples section. […] CT (control IgG), Ab (patient IgG). 18-mer biotin-peptide was incubated with an anti-Biotin Ab, 1:200 dilution (gray bars) or irrelevant IgG white bars, n=6. Oxidation was assessed. […] Ctl refers to ³⁵S ribosomal-translation of luciferase. AD-CTD refers to ³⁵S-ribosomal translation of ADAMTS-18 with absent C-terminal 157 amino acids (13% deleted). There is an absence of binding with C-terminal deficient ADAMTS-18. 18 mer refers to 10 μM non-radioactive 18 mer peptide added with the ³⁵S-ADAMTS-18 incubation. Binding with C-terminal 18 mer peptide is inhibited. The amino acid sequence for the 18-mer peptide is (SEQ ID NO: 8): […]

Row | Binder | platelet fragmentation of TFLLRN-activated platelets against platelets without prestimulation [1] | binding result [2]
1 | B1 | ~22 fold | 
2 | B2 |  | no binding
